The results in this text go back to article PMC5538822, “RNA-dependent stabilization of SUV39H1 at constitutive heterochromatin”.

For series [1], the target named is T1, MBP-SUV39H1 1-106 (NTE + chromodomain) (Homo sapiens) (UniProt O43463).
T1 sequence: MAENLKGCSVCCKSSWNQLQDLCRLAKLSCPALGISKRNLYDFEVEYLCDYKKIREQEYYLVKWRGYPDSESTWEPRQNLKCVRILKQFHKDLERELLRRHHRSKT
Nature of the series: EMSA. The following applies: 20 mM Tris-HCl pH 7.4, 50 mM NaCl, 10% glycerol, ~4 U RNase inhibitor, room temperature 10 min; native gel 0.5X TBE at 25 C; filter binding on nitrocellulose …. (In general: Mobility shift assays separate free from complexed probe on a gel.)

For series [2], the target named is T2, MBP-SUV39H1 1-106 (NTE + chromodomain) (Homo sapiens, UniProt O43463 1-106).
T2 sequence: T1 sequence
Nature of the series: EMSA; 20 mM Tris-HCl pH 7.4, 50 mM NaCl, 10% glycerol, ~4 U RNase inhibitor, room temperature 10 min; native gel 0.5X TBE at 25 C; filter binding on nitrocellulose in the same buffer. The following applies: protein: recombinant, tags: MBP, label: 32P.

Series [3] has as its target T3, MBP-SUV39H1 1-41 (N-terminal extension) (Homo sapiens, UniProt O43463 1-41).
T3 chain: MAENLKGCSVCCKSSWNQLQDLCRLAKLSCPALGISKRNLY
Described as above. Conditions: protein: recombinant; tags: MBP; label: 32P.

Series [4] has as its target T4, MBP-SUV39H1 107-412 (pre-SET, SET, post-SET) (Homo sapiens, UniProt O43463 107-412).
T4 sequence: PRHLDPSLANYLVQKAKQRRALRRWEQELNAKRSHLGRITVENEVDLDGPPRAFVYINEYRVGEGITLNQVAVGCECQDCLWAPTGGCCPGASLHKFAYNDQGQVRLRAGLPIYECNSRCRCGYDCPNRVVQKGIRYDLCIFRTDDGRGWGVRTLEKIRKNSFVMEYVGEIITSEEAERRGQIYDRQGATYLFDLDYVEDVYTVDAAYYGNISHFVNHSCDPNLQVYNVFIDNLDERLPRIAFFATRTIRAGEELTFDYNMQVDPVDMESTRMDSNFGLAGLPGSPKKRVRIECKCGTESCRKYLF
Described as above. The following applies: protein: recombinant; tags: MBP; label: 32P.

Series [5] addresses T5, MBP-SUV39H1 42-106 (chromodomain) (Homo sapiens, UniProt O43463 42-106).
T5 sequence: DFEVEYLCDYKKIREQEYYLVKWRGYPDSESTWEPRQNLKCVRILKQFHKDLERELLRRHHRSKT
The description is as above. Conditions: protein: recombinant; tags: MBP; label: 32P.

In the case of alpha-satellite ssRNA (180mer), the Kd (usually the concentration at which binding is half-saturated) in series [1] is 23 nM.

On to beta-actin ssRNA (180mer), for which, in series [1], the Kd came to 32 nM. In the case of ACCAAAATCGAAGAAGGTAAACTGGTAATCTGGATTAACGGCGATAAAGG (ssDNA) [ssDNA, sense MBP 1-50], the binding result in series [2] is on record as “binds”.

B1: dsDNA MBP 1-50 (dsDNA)
DNA 1: ACCAAAATCGAAGAAGGTAAACTGGTAATCTGGATTAACGGCGATAAAGG
DNA 2: CCTTTATCGCCGTTAATCCAGATTACCAGTTTACCTTCTTCGATTTTGGT
Regarding B1, the Kd in series [2] (blunt) came to 185 ± 17 nM. AUAUGGGAACCACUGAUCC (ssRNA) [sense 19mer ssRNA]: the Kd in series [3] was 51000 ± 30000 nM; in series [2], 145 ± 9 nM; in series [5], 2310 ± 170 nM. For the same molecule, the binding result in series [4] is given as “no binding”. For GGGAUCAGUGGUUCCCAUA (ssRNA) [antisense 19mer ssRNA], the Kd in series [2] stood at 366 ± 22 nM.

B2: dsRNA MBP 1-50 (dsRNA)
RNA 1: ACCAAAAUCGAAGAAGGUAAACUGGUAAUCUGGAUUAACGGCGAUAAAGG
RNA 2: CCUUUAUCGCCGUUAAUCCAGAUUACCAGUUUACCUUCUUCGAUUUUGGU
On to B2, for which the binding result in series [2] (blunt) is on record as “binds”. As to ACCAAAAUCGAAGAAGGUAAACUGGUAAUCUGGAUUAACGGCGAUAAAGG (ssRNA) [ssRNA1, sense MBP 1-50], in series [2], the Kd was found to be 61 ± 5 nM.

As to CCUUUAUCGCCGUUAAUCCAGAUUACCAGUUUACCUUCUUCGAUUUUGGU (ssRNA) [ssRNA2, antisense MBP 1-50], the Kd in series [2] worked out at 64 ± 3 nM.
